Tests used:
Conditions in all cases: EMSA: 40 mM Tris-HCl pH 8, 100 mM KCl, 0.5 mM DTT, 0.05% NP40, 2 mM spermidine, 0.2 mM EDTA, 8% glycerol, 15 ng/ul herring sperm DNA, 30 min room temperature …
[1] = system: T1, 6His-SUMO-RegA (Acidithiobacillus ferrooxidans ATCC 23270T), ORF:158a6978; test: EMSA
T1 sequence: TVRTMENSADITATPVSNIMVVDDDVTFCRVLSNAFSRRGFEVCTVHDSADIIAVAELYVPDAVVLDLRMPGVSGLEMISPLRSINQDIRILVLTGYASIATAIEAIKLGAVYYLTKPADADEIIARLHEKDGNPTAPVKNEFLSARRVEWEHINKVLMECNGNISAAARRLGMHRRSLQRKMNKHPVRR

[2] = system: T1, 6His-SUMO-RegA (Acidithiobacillus ferrooxidans ATCC 23270T), ORF:158a6978; test: DLS
[3] = system: T2, RegA-HTH-6His (Acidithiobacillus ferrooxidans ATCC 23270T), ORF:158a6978; test: EMSA
T2 sequence: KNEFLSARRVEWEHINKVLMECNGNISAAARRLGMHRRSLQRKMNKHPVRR

Sequence	binding [1]	binding [2]	binding [3]
CATTATGCGGCTGGCACAATACATGCATAAAACATCTCGTGCTGCCGCGGGATTCTCATTTTCATTTACTCATTGAATATCATAAGCGGGATGCAGCCATAAATATAACGCTGGTTGTGTTATTGGGAGCGAGCATTTAATTCTGTTGATATCGTTTATGGGAATAACAAAAGTGGAGACGCAGCTGAAAAAGCGAAGCTGATGACAGAGTACGTTATACCTCACCAAATGGATTGGAGACTTGATATGCC (double strand) [tet 251 bp]	binds		
CCCCAGTCATGAAGCCTACCGTGGTAATCGCCCCCCTTGCGGTTAAGCTAACTACTTCTGGTAAACCCCACTTCCATGGTGTGACGGGCGGTGTG (double strand) [rrs 16S 95 bp]		no binding	no binding
TGTCAGTTTTTGGGACATTTTAGTGATCGCGGCATATAATTAAAAGGCCAGATTAACATGTTTAAATAACGTTAGCACATAATTCTTTTCTTATGTTCTTTATTTAAGTTATTGTGTTTTAGTGGATCCGTATCGTGATG (double strand) [rus PI 140 bp]	binds		
